From doi:10.1101/2021.11.02.467024 (bioRxiv, 2021)

Biological target: the molecule itself
Assay: cross-linking

B1: IMPDH1 (enzyme)
chain: not shown
- stoichiometry N: 4
